The text below walks through data of patent publication US6884600B1, “Protein phosphatase-1 catalytic subunit interactions” (Medical Research Council London, priority 1996, dated 2005).

The test system of one assay is M21 subunit. The assay can be described thus: Far Western blotting: interaction with the M21 subunit. It is filed as binding, chicken. The following applies: probe 0.2 μg/ml. In short, it runs like this:
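Proteins (PP1M, M110 and M21 fragments, MBP or GST fusions) resolved on 12% or 16.5% SDS gels, transferred to nitrocellulose and probed with digoxigenin-labelled M21, M21-(M1-L146) or MBP-M110-(K933-I1004) at 0.2 μg/ml. Parallel gels Coomassie-stained; protein by Bradford.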

Another assay addresses T1, myosin (Gallus gallus, UniProt P10587).
T1 construct: from tissue; host or cells: chicken gizzard
The assay can be described thus: Myosin binding assay (pelleting with myosin). On the set-up: species or system chicken. As to conditions: myosin 1 μM, 15 min 0° C. In short, it runs like this: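 PP1M, PP1c, PP1M(ΔM21) or M110 fragments (30 nM; M110 fragments and M21 at 100 nM) incubated 15 min at 0° C with 1 μM myosin in 10 mM Hepes pH 7.5, 50 mM KCl, 5 mM MgCl2, then centrifuged 2 min at 13,000×g. Supernatant, pellet and total analysed by immunoblot or P-light chain phosphatase activity.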

The target of a further assay is T2, PP1c (Oryctolagus cuniculus, UniProt P62143).
T2 construct: from tissue; host or cells: rabbit skeletal muscle (PP1G dissociated with LiBr)
T2 sequence (P62143 whole entry): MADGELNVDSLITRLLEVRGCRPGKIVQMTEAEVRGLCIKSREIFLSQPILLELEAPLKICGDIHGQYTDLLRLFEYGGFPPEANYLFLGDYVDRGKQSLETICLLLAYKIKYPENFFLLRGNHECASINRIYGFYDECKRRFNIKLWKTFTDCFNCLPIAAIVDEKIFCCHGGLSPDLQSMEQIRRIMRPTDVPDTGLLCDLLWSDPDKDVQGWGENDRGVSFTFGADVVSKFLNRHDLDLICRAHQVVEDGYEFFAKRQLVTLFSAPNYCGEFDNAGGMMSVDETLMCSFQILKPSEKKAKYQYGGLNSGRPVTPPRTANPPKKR
The assay can be described thus: Glycogen synthase phosphatase activity of PP1c. It is filed as biochemical, rabbit. As to the method:
The glycogen synthase phosphatase activity of PP1c was measured after a 15 minute incubation at 30° C. with the indicated concentrations of M110-(M1-F38) and M110-(M1-E309). Similar results were obtained in three different experiments.
^32P-labelled rabbit skeletal muscle phosphorylase a (containing 1.0 mol phosphate per mol subunit) was prepared by phosphorylation with phosphorylase kinase, ^32P-labelled rabbit skeletal muscle glycogen synthase (containing 1.5 mol/mol subunit in the sites 3 region) was prepared by phosphorylation with glycogen synthase kinase-3 [24]). ^32P-labelled chicken gizzard MLC20 and ^32P-labelled chicken gizzard heavy meromyosin (containing 1.0 mol phosphate per mol subunit) were prepared by phosphorylation with smooth muscle myosin light chain kinase. The dephosphorylation of phosphorylase a (10 μM), glycogen synthase (1 μM) and MLC20 (1 μM) and heavy meromyosin (1 μM) was carried out as in [24]. One unit of activity (U) was that amount which released […] of phosphate in one minute.

M21 subunit, sequence (as listed by the source): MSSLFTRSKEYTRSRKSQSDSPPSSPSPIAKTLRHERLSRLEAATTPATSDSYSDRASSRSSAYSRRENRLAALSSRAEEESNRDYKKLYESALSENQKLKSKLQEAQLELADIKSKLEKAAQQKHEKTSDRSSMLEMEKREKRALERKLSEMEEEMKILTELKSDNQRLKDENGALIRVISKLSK
T1 sequence (P10587 whole entry): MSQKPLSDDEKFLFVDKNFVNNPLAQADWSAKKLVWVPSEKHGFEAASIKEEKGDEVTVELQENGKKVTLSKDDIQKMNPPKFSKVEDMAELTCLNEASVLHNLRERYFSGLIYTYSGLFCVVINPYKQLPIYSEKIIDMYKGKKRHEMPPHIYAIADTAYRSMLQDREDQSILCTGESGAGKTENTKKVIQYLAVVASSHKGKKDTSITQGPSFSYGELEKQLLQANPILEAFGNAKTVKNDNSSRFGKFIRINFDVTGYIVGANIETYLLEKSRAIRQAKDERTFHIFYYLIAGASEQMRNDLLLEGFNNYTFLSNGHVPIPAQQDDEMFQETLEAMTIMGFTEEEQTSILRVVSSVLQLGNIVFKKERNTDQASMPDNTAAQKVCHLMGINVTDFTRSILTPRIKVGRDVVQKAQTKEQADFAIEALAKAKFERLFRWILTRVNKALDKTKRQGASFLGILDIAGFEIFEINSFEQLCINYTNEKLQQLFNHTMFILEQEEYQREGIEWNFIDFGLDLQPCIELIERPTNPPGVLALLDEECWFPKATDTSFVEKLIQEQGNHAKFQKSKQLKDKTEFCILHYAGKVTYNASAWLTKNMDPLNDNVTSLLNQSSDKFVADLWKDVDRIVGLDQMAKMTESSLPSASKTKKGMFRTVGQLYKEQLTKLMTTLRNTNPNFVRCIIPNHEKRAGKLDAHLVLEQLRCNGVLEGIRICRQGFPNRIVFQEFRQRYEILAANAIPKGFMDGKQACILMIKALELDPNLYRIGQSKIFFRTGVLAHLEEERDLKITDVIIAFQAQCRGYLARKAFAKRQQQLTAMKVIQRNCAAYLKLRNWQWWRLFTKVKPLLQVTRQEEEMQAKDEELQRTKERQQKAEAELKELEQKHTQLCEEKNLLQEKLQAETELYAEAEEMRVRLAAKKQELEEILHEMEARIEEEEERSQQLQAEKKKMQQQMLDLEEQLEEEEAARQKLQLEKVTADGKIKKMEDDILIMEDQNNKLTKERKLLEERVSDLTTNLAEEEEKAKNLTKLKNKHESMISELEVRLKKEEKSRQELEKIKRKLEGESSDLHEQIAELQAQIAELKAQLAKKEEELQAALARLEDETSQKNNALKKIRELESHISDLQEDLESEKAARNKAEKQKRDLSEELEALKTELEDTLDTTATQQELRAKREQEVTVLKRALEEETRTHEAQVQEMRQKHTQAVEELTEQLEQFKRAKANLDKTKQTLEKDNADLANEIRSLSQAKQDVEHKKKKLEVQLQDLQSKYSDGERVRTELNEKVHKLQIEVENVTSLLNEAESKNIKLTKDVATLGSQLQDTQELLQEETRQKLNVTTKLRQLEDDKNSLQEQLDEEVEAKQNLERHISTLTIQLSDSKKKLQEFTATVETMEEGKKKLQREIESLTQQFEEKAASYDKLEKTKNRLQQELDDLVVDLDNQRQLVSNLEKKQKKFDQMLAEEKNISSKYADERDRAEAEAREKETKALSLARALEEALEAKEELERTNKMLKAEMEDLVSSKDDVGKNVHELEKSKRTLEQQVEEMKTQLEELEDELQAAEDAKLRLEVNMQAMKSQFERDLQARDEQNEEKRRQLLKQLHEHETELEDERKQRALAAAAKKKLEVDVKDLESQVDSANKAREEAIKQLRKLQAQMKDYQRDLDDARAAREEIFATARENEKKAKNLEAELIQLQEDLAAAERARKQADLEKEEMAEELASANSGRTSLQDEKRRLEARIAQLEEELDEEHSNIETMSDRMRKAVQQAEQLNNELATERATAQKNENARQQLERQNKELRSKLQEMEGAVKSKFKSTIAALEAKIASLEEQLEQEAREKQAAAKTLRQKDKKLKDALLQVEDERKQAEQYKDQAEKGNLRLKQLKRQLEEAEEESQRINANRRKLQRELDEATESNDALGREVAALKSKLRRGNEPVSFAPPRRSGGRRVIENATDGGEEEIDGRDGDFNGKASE
T1 sequence (P02612 whole entry partner): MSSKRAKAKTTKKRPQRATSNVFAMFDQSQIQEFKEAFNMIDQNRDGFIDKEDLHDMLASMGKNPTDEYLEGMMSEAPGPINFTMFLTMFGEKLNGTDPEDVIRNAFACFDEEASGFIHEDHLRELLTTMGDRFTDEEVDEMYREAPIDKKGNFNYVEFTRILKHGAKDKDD
T1 sequence (P02607 whole entry partner): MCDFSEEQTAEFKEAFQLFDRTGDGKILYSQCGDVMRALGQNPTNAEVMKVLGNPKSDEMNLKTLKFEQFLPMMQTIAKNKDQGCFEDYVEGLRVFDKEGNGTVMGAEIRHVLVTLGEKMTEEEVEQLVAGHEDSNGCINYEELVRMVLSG

B1: M110-(M1-E309): rat aorta M110 fragment, residues 1-309, released from GST-fusion protein with thrombin (protein)
chain: GSPGMKMADAKQKRNEQLKRWIGSETDLEPPVVKRQKTKVKFDDGAVFLAACSSGDTDEVLKLLHRGADINYANVDGLTALHQACIDDNVDMVKFLVENGANINQPDNEGWIPLHAAASCGYLDIAEFLIGQGAHVGAVNSEGDTPLDIAEEEAMEELLQNEVNRQGVDIEAARKEEERIMLRDARQWLNSGHISDVRHAKSGGTALHVAAAKGYTEVLKLLIQAGYDVNIKDYDGWTPLHAAAHWGKEEACRILVDNLCDMETVNKVGQTAFDVADEDILGYLEELQKKQNLLHSEKRDKKSPLIESTANMEA
As for B1, the “recognised by digoxigenin-labelled M21 subunit in Far Western blotting” value in the assay on M21 subunit is listed as “not”. In addition, the binding to myosin result with myosin is listed as “did not bind to myosin”. Further, in the assay with PP1c, the “effect on the dephosphorylation of glycogen synthase by PP1c” value is given as “inhibited”.
